Assay results published in patent US20160340421A1 (Regeneron, published 2016).

T1: Human GDF8 homodimer (mature human Growth and Differentiation Factor-8) (human, UniProt O14793 267-375)
T1 construct: also called hGDF8; myostatin
T1 sequence: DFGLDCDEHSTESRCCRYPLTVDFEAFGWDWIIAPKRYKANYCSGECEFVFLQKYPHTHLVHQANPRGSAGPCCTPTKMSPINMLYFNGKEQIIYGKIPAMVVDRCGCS

T2: hGDF11 homodimer (human, UniProt O95390 299-407)
T2 sequence (looked up): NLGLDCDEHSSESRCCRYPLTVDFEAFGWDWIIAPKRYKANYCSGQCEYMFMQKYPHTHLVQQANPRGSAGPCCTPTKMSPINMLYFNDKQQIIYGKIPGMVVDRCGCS


Legend:
[1] = target: T1, Human GDF8 homodimer (mature human …); assay: SPR, antibody captured, 25 nM antigen
Description: (§1) Equilibrium dissociation constants (KD values) for antigen binding to selected antibodies were determined by surface kinetics using a real-time biosensor surface plasmon resonance assay (BIACORE™ 2000). Each selected antibody was captured on either a goat anti-mouse IgG polyclonal antibody surface or a goat anti-hFc polyclonal antibody (Jackson Immuno Research Lab) surface created through direct chemical coupling to a BIACORE™ chip to form a captured antibody surface. Human GDF8 homodimer, hGDF11 homodimer, or hGDF5 homodimer at 25 nM was injected over the captured antibody surfaces, and antigen-antibody binding and dissociation were monitored in real time at room temperature. Kinetic analysis was performed to calculate KD, dissociation rate constants (kd), association rate constants (ka) and half-life of antigen/antibody complex dissociation (Table 2).

[2] = target: T2, hGDF11 homodimer; assay: SPR, antibody captured, 25 nM antigen
Description: as §1

[3] = target: T1, Human GDF8 homodimer (mature human …); assay: cell-based or functional assay
[4] = target: T2, hGDF11 homodimer; assay: cell-based or functional assay

Row | Binder | Kd [1] | T1/2 [1] | Kd [2] | T1/2 [2] | IC50, GDF8-inducible luciferase, A204/Smad2 cells, 0.8 nM GDF8 [3] | IC50, GDF11-inducible luciferase, A204/Smad2 cells, 0.8 nM GDF11 [4]
1 | 9B4-3 (antibody, V domains shown) VH: EVQLLESGGGLVQPGESLRLSCAASGFTFSSYAMNWVRQAPGKGLEWVSTISGSGGYIYYADSVKGRFTISRDNSKNTLYLQMNSLRAEDTAVYFCAKDSRYNWNYGNFDYWGQGTLVTVSS VL: EIVMTQSPATLSVSPGERATLSCRASQNVSSNLAWNKQKPGQAPRLLIYATSTRATGVPARFSASGSGTDFALTINSLQSEDFAVYYCQQYNNWPLTFGGGTKVEIK | 1.18 nM | 50 min | 1.08 nM | 32 min |  | 
2 | 20B12 (antibody, V domains shown) VH: EVQLLESGGGLVQPGGSLRLSCAGSGITFSSYAMSWVRQAPGKGLEWVSAISGNGGTTNYADSVKGRFTISRDNSKNTLYLQMNSLRAEDTAVYYCAKERILTSSWTRYGIMDVWGQGTTVTVSS VL: EIVMTQSPATLSMSPGERATLSCRASQSVSSNLAWYQQKPGQAPRLLIYGASTRATGIPARFSGSGSGTEFTLTISSLQSEDFAVYYCQQYNNWPLTFGGGTKLEIK | 0.86 nM | 39 min | 2.08 nM | 2 min | > 20 nM | > 25 nM
3 | 4E3-7 (antibody, V domains shown) VH: EVQLLESGGGLVQPGGSLRLSCVASRFTFSSNAMSWVRQAPGTGLEWVSAITGSGSRTYYADSVKGRFTISRDNSKNTVYLQMNSLRGEDTAVYYCAKDQGGTWNYGDFDYWGQGTLVTVSS VL: EIVMTQSPATLSVSPGERATLSCRASQSVSSNLAWYQQKPGQAPRLLIYGASTRATGLPARFSGSGSGTDFTLTISSLQSEDFAVYYCQQYNNWPLTFGGGTKVEIK | 1.89 nM | 27 min | 1.33 nM | 29 min | 10.4 nM | > 25 nM
4 | 1H4-5 (antibody, V domains shown) VH: QVQLVESGGDVVQPGRSLRLSCTASGFTFSSYGMHWVRQAPGRGLEWVAVISFDGKNKYYADSVKGRFTVSRDNSKNTLFLQMNSLRAEDTALYYCAKRIAATGYYYFYGLDVWGQGTTVTVSS VL: EIMMTQSPATLSVSPGERGTLSCRASQSVSSNLAWYQQKPGQAPRLLIYGASTRASGIPARFSGSGSGTEFTLTVSSLQSEDFAVYYCQQYNNWPLTFGGGTKVEIK | 0.95 nM | 54 min | 1.48 nM | 24 min |  | 
5 | 4B9 (antibody, V domains shown) VH: EVQLLESGGGLVQPGGSLRLSCAASGFTSITYAMSWVRQAPGKGLEWVSAISVSGTNTYYADSVKGRFTISRDKSKNMLYLQMNSLRAEDTAVYYCAKDLLHNWKYGTFDIWGQGTMVTVSS VL: EIVMTQSPATLSVSPGERATLSCRASQSVDSNLVWYQQKPGQVPRLLIYGASTRATGIPARFSGSGSGTEFTLTISSLQSEDFAVYYCQQYNKWPLTFGGGTKVEIK | 0.55 nM | 55 min | 1.09 nM | 34 min | 0.47 nM | > 25 nM
6 | 58C8 (antibody, V domains shown) VH: EVQLLESGGGLVQPGGSLRLSCAASGFTSITYAMSWVRQAPGKGLEWVSAISVSGTNTYYADSVKGRFTISRDKSKNMLYLQMNSLRAEDTAVYYCAKDLLHNWKYGTFDIWGQGTMVTVSS VL: not shown | 0.62 nM | 56 min | 0.44 nM | 30 min | 1.8 nM | > 25 nM
7 | 3A4-3 (antibody, V domains shown) VH: QVQLVQSGGGLVKPGGSLRLSCAASGFIFNTYTMNWVRQAPGKGLEWVSSITSRGTYIFYSDSLKGRFTISRDNANNSLFLQMNSLRVEDTAVYYCSRDRGYTFGPDYWGQGTLVTVSS VL: DIQMTQSPSSLSASVGDRVTITCRASQDIRNDLGWYQQKPGKAPKGLIYAASSLQSGVPSRFSGSGSGTEFTLTISSLQPEDFATYHCLHYDFHPRTFGQGTKVEIK | 1.07 nM | 137 min | 0.51 nM | 71 min | 3.1 nM | > 20 nM
8 | 22-D3 (antibody, V domains shown) VH: QVQLVQSGGGLVKPGGSLRLSCAASGFTFSSYSMNWVRQAPGKGLEWVSSISSSSSYIYYADSVKGRFTISRDNAKNSLYLQMNSLRAEDTAVYYCARDRGYTFGVDYWGQGTTVTVSS VL: AIQMTQSPSSLSASVGDRVTITCRASQGIRNDLGWYQQKPGKAPKRLIYAASSLQSGVPSRFSGSGSGTEFTLTISSLQPEDFATYYCLQHNSYPYTFGQGTKVEIKR | 1.23 nM | 34 min | 1.09 nM | 21 min | > 20 nM | > 25 nM
9 | 22-E6 (antibody, V domains shown) VH: QVQLVQSGPGLVKPSETLSLTCTVSGGSIITYSYYWGWIRQPPGKGLEWIGTIHHSGSTYYNPSLKSRVTISVDTSKNQFSLTLSSVTAADTAVYYCARDYYDSSGYYYNWFDPWGQGTMVTVSS VL: AIQMTQSPSSLSASVGDRVTITCRASQGIRNDLGWYQQKPGKAPKRLIYAASSLQSGVPSRFSGSGSGTEFTLTISSLQPEDFATYYCLQHNSSPWTFGQGTKVEIKR | 0.26 nM | 148 min | 0.12 nM | 87 min | 2.2 nM | 22.4 nM
10 | 21-B9 (antibody, V domains shown) VH: QVQLVQSGPGLVKPSETLSLTCTVSGGSISNSNYYWGWIRQPPGKGLEWIGTTYYSGTTYYNPSLKSRVTISVDTSKNQFSLKLSSVTAADTAVYYCARDYYDSSGYYYNWFDPWGQGTTVTVSS VL: DIQLTQSPSSLSASVGDRVTITCRASQDIRNDLGWYQQKPGKAPKRLIYAASSLQSGVPSRFSGSGSGTEFSLTLSSLQPEDFATYFCLQHHIYPWTFGQGTKLEIKR | 0.12 nM | 126 min | 0.064 nM | 133 min | 0.62 nM | 1.2 nM
11 | 21-E9 (antibody, V domains shown) VH: EVQLVQLGPGLVKPSETLSLTCTVSGGSISNSNYYWGWIRQPPGKGLEWIGTTYYSGTTYYNPSLKSRVTISVDTSKNQFSLKLSSVTAADTAVYYCARDYYDSSGYYYNWFDPWGQGTTVTVSS VL: AIQMTQSPSSLSASVGDRVTITCRASQDIRNDLGWYQQKPGKAPKRLIYAASSLQSGVPSRFSGSGSGTEFSLTLSSLQPEDFATYFCLQHHIYPWTFGQGTKVEIKR | 0.14 nM | 155 min | 0.07 nM | 221 min | 0.99 nM | 1.2 nM
12 | 19F2 (antibody, V domains shown) VH: QVQLVESGGGVVQPGRSLRLSCEASGFTFSSSGMHWVRQAPGKGLQWVAVISYDGNNKFYEDSVKGRLTISRDNSNNTLWLQMNSLRVEDTAVYYCAKSGGRVGAAFAYWGQGTLVTVSS VL: DIVNTQSPLSLPVTPGEPASISCRSSQSLLYGNGYNYLDWYLQKPGHSPQLLIYLGSNRGSGVPDRFSGSGSGTDFTLKISRVEAEDVGIYYCMQTLQTPFTFGPGTKMYIK | 0.5 nM | 38 min |  |  | > 20 nM | > 25 nM
13 | 3E2-1 (antibody, V domains shown) VH: QVQLQQWGAGLLKPSETLSLTCAVYGGSFSGYYWSWIRQPPGKGLEWIGEINHSGNTNYNPSLKSRVTISVDTSKNQFSLKLNSVTAADTAVYYCARREATVTPYFDYWGQGTLVTVSS VL: DIQLTQSPSFLSASVGDRVTITCWASQGISSYLAWYQQKPGKAPKLLIYAASTLQSGVPSRFSGSGSGTEFTLTISSLQPEDFATYYCQQLNSYPLTFGGGTKVEIK | 2.55 nM | 45 min | 0.7 nM | 79 min |  | 
14 | 8D12-1 (antibody, V domains shown, probably the same antibody as 8D12) VH: QVQLVESGGGVVQPGRSLRLSCAASGFTFSRYGIHWVRQAPGKGLEWVAVISYDGSDEYYVDSVKGRFSISRDNSKNTLYLQMNSLRPADSAVYYCVKGDLELGFDYWGQGTLVTVSS VL: DIVMTQAAPSIPVIPGESVSMSCRSSKSLLYSNGHTYVYWFVQRPGQSPQLLIYRMSNLASGVPDRFSGSGSGTAFTLRISRVEAEDVGVYYCMQNLEFPLTFGAGTKLELK | 0.66 nM | 95 min | 1.87 nM | 23 min | 2.4 nM | > 25 nM
15 | 22-G10 (antibody, V domains shown) VH: QVHLKESGPTLVKPTQTLTLTCTFSGFSLSTSGVGVGWIRQPPGKALEWLALIYWNDDKRYSPSLKSRLTITKDTSKNQVVLTMTNMDPVDTATYYCTHTSRYNWHYGFLDYWGQGTTVTVSS VL: AIQMTQSPSSLSASVGDRVTITCRASQGISNYLAWFQQKPGKAPKSLIYAASSLQSGVPSKFSGSGSGTDFTLTISSLQPEDFATYYCQQYNSYPLTFGGGTKVEIKR | 0.25 nM | 71 min | 0.73 nM | 50 min | 10.5 nM | > 25 nM
